# In publication PMC10792529 (Proteins, 2023):
# “And” between values parts separate entries of the source, which are not always exact repeats. Identical values can stand only once.
# T1: E. coli outer-membrane transporter FhuA (E. coli, UniProt P06971 34-747)
# T1 sequence (looked up): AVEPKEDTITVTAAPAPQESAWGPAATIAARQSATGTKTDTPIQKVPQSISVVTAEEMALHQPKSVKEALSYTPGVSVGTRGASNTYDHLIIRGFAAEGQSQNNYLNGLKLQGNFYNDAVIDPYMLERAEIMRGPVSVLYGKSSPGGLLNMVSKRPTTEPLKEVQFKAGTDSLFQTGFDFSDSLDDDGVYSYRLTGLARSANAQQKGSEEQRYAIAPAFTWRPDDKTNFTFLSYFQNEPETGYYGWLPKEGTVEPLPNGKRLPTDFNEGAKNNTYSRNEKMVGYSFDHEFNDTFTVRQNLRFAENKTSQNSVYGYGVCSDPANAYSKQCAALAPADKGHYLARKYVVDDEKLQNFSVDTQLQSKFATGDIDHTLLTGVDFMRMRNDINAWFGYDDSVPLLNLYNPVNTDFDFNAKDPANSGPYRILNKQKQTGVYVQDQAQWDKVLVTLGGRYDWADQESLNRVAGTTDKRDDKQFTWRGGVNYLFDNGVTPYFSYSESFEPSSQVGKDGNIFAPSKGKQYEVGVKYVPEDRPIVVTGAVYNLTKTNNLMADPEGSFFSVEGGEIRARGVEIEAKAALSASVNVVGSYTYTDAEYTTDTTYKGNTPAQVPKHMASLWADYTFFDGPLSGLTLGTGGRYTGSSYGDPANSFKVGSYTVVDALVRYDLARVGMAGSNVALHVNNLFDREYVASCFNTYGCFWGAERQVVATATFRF
# B1: nanobody 8C (VHH)
# VHH: EVQLEESGGGLVQAGGSLTLSCAASGFTFDDYAMGWYRQAPGKERVGVSCISRTDGYTYYLDSVKGRFTISTDHAKHTVYLQMNNLKPDDTGLYYCAADADPEYGSRCPDPYYGMDYWGKGILVTVSS
# B2: human SUN1 SUN domain (domain or fragment)
# chain: GITEAQARAIVNSALKLYSQDKTGMVDFALESGGGSILSTRCSETYETKTALMSLFGIPLWYFSQSPRVVIQPDIYPGNCWAFKGSQGYLVVRLSMMIHPAAFTLEHIPKTLSPTGNISSAPKDFAVYGLENEYQEEGQLLGQFTYDQDGESLQMFQALKRPDDTAFQIVELRIFSNWGHPEYTCLYRFRVHGEPVK
# B3: Bacteriophage T5 Receptor Binding Protein RBPpb5 (natural protein)
# chain: MSFFAGKLNNKSILSLRRGSGGDTNQHINPDSQTIFHSDMSHVIITETHSTGLRLDQGAGDYYWSEMPSRVTQLHNNDPNRVVLTEIEFSDGSRHMLSGMSMGVGAKAYGIINPQIMSQGGLKTQITASADLSLDVGYFNTGTSGTIPQKLRDGTGCQHMFGAFSGRRGFASSAMYLGGAALYKSAWSGSGYVVADAGTLTIPSDYVRHPGARNFGFNAIYVRGRSCNRVLYGMEGPNYTTGGAVQGASSSGALNFTYNPSNPESPKYSVGFARADPTNYAYWESMGDPNDSANGPIGIYSEHLGIYPSKITWYVTNLVYNGSGYNIDGGLFNGNDIKLSPREFIIKGVNVNNTSWKFINFIEKNFNVGNRADFRDVGCNLSKDSPSTGISGIATFGLPTTESNNAPSIKGGNVGGLHANVVSIYNFLPSASWYVSSNPPKIGNNYGDVWSENLLPLRLLGGSGSTILSGNIVFQGNGSVHVGTVGLDLNSSRNGAIVCTMEFIDDTWLSAGGIGCFNPTEMLSQGAEYGDSRFRIGGNTINKKLHQILSLPAGEYVPFFTIKGTVVNACKLQAAAYNPTPYWVSGLPGSVGQTGYYTLTYYMRNDGNNNISIWLDSSMSNIIGMKACLPNIKLIIQRLT
# Experiments:
# [1] = biological target: cytosolic domain of the major export gate protein YscV (Yersinia enterocolitica); experiment: crystal structure; 9:9:9 YscV:YscX:YscY complex, 4.1 Å, 18 copies of the 1:1:1 complex in the asymmetric unit
# [2] = biological target: HucM, scaffold subunit of the [NiFe]-hydrogenase Huc (Mycobacterium smegmatis); experiment: cryo-EM structure; 833 kDa Huc complex: 8 HucL, 8 HucS, 4 HucM
# [3] = biological target: HucSL heterodimer (Mycobacterium smegmatis); experiment: as above
# [4] = biological target: nudivirus polyhedrin (occlusion body protein of Tipula oleracea nudivirus) (Tipula oleracea nudivirus); experiment: crystal structure
# [5] = biological target: Mycobacterium smegmatis MceG (Mycobacterium smegmatis); experiment: cryo-EM structure
# [6] = biological target: tyrosine O-methyltransferase MfnG from Streptomyces drozdowiczii (Streptomyces drozdowiczii); experiment: crystal structure; MfnG with SAH and soaked L-Tyr; five crystal forms with one to four dimers per asymmetric unit
# [7] = biological target: phosphodiesterase domain of 2',3'-cyclic nucleotide 3'-phosphodiesterase (CNPase) (Mus musculus (assumed; species not …, UniProt P16330); experiment: crystal structure; nanobodies co-crystallized with the phosphodiesterase domain of CNPase; settings: both partners purified
# phosphodiesterase domain of 2',3'-cyclic nucleotide 3'-phosphodiesterase (CNPase) (Mus musculus, sequence (P16330 whole entry, looked up, the tested form may be a part): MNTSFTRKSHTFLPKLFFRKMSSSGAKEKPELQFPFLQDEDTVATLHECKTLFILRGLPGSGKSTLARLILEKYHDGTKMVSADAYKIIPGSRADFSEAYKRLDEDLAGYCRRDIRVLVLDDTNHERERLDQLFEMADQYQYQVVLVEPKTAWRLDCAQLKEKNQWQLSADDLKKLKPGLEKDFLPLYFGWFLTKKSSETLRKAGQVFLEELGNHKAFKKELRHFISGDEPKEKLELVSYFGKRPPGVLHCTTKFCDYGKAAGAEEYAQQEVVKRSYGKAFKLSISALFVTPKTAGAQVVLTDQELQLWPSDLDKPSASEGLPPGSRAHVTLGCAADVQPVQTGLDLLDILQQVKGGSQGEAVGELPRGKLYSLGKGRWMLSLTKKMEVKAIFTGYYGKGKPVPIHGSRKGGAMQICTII
# [8] = biological target: B2; experiment: crystal structure; SUN1-KASH6 complex, nine SUN domains and six KASH peptides; settings: both partners purified
# [9] = biological target: the molecule itself; experiment: as above
# [10] = biological target: T1, E. coli outer-membrane transporter FhuA; experiment: cryo-EM structure; settings: both partners purified
molecule,measurement,setting,value
YscX:YscY heterodimer (complex),stoichiometry N (YscX:YscY complexes per YscV nonamer),[1],9
"HucM, scaffold subunit of the [NiFe]-hydrogenase Huc (natural protein)",stoichiometry N,[2],4
HucSL heterodimer (complex),stoichiometry N,[3],2
nudivirus polyhedrin (occlusion body protein of Tipula oleracea nudivirus) (natural protein),stoichiometry N,[4],2
cytosolic domain of the major export gate protein YscV (domain or fragment),stoichiometry N,[1],9
Mycobacterium smegmatis MceG (enzyme),stoichiometry N,[5],2
tyrosine O-methyltransferase MfnG from Streptomyces drozdowiczii (enzyme),stoichiometry N,[6],2
B1,binding result,[7],binds
"TGQLFQKSVDAAPTQQEDSWTSLEHILWPFTRLRHNGPPPV [KASH6 peptide, the KASH domain of JAW1/LRMP]",stoichiometry N,[8],2 KASH6 peptides per SUN1 trimer
B2,stoichiometry N,[9],3 and 9
B3,binding result,[10],binds
